Data from publication PMC9894219.
Like-named read-outs stand apart in the source and are kept apart here.

B1: IR5 biotinylated (dsDNA)
DNA 1: AAAGGTCAAACTGTGACCTAT
DNA 2: ATAGGTCACAGTTTGACCTTT
B2: NBRE (dsDNA)
DNA 1: CCGAAAAGGTCATGCG
DNA 2: CGCATGACCTTTTCGG

What was measured:
[1] = target: T1, Nurr1258 (in Nurr1258-RXRα98 heterodimer);RXRα98 (DBD-hinge-LBD) (human?;human?, UniProt P43354;P19793 258-598;98-462, |); assay: BLI
[2] = target: T1, Nurr1258 (in Nurr1258-RXRα98 …); assay: BLI; remark: listed apart in the source
[3] = target: Nurr1258 (Nurr1 DBD-hinge-LBD) (UniProt P43354 258-598); assay: crystal structure
Nurr1258 (Nurr1 DBD-hinge-LBD), sequence (P43354 258-598): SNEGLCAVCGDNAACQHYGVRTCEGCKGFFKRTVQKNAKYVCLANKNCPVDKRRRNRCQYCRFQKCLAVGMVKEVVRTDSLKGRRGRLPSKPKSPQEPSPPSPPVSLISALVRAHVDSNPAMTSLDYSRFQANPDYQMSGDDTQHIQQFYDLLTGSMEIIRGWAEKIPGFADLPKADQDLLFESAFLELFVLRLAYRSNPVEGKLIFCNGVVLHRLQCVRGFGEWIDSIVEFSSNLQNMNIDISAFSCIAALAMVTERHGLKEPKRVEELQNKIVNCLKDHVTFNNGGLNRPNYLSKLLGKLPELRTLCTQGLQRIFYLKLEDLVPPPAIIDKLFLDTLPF

T1 sequence (P43354 258-598, chain 1 of 2): as the sequence (P43354 258-598) above
T1 sequence (P19793 98-462, chain 2 of 2): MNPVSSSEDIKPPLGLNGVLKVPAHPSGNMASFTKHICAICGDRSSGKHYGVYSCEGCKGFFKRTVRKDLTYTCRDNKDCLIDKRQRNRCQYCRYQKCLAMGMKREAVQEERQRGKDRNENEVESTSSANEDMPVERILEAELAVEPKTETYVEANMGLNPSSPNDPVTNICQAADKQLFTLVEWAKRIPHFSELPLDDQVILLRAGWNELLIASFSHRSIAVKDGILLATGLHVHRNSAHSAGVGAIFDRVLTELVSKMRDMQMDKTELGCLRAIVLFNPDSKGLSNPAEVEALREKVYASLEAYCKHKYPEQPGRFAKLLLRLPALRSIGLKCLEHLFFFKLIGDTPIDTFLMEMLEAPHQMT

Binder	Kd [1]	Kd [2]	binding result [3]
B1	62.5 nM	864 nM	–
B2	–	–	binds
